Results on seven substances are retold here after article PMC3170320, “Minimal Antizyme Peptide Fully Functioning in the Binding and Inhibition of Ornithine Decarboxylase and Antizyme Inhibitor” (PLoS ONE, 2011).

Sequence of human antizyme peptide AZ_106-228 (P54368 106-228): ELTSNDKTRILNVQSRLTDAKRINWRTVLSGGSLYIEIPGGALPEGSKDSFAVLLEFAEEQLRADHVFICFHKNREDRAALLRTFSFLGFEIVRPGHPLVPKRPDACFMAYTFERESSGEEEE
Sequence of human antizyme peptide AZ_126-228 (P54368 126-228): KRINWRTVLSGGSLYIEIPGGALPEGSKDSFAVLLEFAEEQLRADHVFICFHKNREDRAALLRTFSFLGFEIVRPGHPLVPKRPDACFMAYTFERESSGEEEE
Sequence of human antizyme peptide AZ_114-228 (P54368 114-228): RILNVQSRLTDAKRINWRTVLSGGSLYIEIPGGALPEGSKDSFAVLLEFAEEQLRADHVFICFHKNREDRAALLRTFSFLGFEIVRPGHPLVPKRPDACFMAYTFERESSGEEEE
Sequence of human antizyme peptide AZ_100-135 (P54368 100-135): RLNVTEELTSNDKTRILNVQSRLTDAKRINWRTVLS
Sequence of human antizyme peptide AZ_95-169 (P54368 95-169): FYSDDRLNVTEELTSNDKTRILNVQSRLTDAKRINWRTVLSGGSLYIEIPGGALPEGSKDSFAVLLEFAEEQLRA
Sequence of human antizyme peptide AZ_100-124 (P54368 100-124): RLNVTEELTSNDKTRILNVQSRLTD
Sequence of human antizyme peptide AZ_87-228 (P54368 87-228): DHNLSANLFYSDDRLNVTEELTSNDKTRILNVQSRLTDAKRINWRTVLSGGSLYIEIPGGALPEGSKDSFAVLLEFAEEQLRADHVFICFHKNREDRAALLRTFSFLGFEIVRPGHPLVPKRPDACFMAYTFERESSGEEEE

In the assay the target is human ornithine decarboxylase, wild type (human) (UniProt P11926).
Sequence of human ornithine decarboxylase, wild type (human) (P11926 whole entry, the tested form may be a part): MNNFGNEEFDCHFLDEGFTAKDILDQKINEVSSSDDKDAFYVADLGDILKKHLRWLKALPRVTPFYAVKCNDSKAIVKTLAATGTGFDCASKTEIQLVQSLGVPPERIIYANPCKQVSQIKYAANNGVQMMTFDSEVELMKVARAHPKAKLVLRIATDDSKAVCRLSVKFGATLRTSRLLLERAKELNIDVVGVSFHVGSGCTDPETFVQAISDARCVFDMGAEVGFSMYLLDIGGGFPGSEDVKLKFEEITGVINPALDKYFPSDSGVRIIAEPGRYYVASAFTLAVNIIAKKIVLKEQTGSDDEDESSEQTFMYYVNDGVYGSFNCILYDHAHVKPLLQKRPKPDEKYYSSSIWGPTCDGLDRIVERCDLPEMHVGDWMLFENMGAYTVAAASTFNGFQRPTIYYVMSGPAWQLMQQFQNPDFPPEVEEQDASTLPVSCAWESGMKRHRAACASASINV
As for “human antizyme peptide AZ_87-228 (from UniProt P54368 87-228) (domain or fragment)”, the IC50 of inhibition of ODC enzyme activity (ODC 0.19 µM), without AZI is 0.17 µM. Next, “human antizyme peptide AZ_95-169 (from UniProt P54368 95-169) (domain or fragment)”: 0.37 µM. The substance “human antizyme peptide AZ_100-124 (from UniProt P54368 100-124) (domain or fragment)” showed an IC50 of inhibition of ODC enzyme activity (ODC 0.19 µM), without AZI of 0.82 µM. Next, “human antizyme peptide AZ_100-135 (from UniProt P54368 100-135) (domain or fragment)”: 0.86 µM; “human antizyme peptide AZ_106-228 (from UniProt P54368 106-228) (domain or fragment)”: 0.37 µM; “human antizyme peptide AZ_114-228 (from UniProt P54368 114-228) (domain or fragment)”: 0.97 µM. Turning to “human antizyme peptide AZ_126-228 (from UniProt P54368 126-228) (domain or fragment)”, the IC50 of inhibition of ODC enzyme activity (ODC 0.19 µM), without AZI amounted to 1.19 µM.
